In this series the test system is ATP. The series is described as follows: switch fluorescence ratio, 500 uM ATP over buffer (Cy3 cluster intensity, sum of 5 cycles each) (fold (ratio)); higher = stronger signal-on switching upon ATP binding; sequences stand for … in TCGTCGGCAGCGTCAGATGTGTATAAGAGACAGTTTTTTTTTTTTTTTTTTTTTTTTT…TC. The note with it: aptamer strand: ATP DNA aptamer (quencher-CACCTGGGGGAGTATTGCGGAGGAAGG + anchor), 100 nM annealed; ATP concentration: 500 uM. The procedure, abridged:
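Clusters with intensities outside 100-1000 RFU were excluded. The remaining Cy3-labelled switching-strand clusters on a modified Illumina MiSeq flow-cell had been annealed to 100 nM quencher-labelled ATP aptamer and imaged in selection buffer, then after 15 min with 500 uM ATP at 22 °C, for five cycles separated by NaOH stripping and re-annealing. The fluorescence ratio, averaged per switch-domain sequence, is each cluster's summed target-cycle Cy3 intensity over its summed buffer-cycle Cy3 intensity.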

± gives the standard deviation of the averaged measurements.
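Note: ATP exposure 15 min at 22 °C before imaging.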

As to TGTGGAAAAT, the switch fluorescence ratio is 1.03 ± 0.074.
Under TGTGGAAAGG stands 1 ± 0.014; under TGTGGCAGGT, 0.982 ± 0.031; under TGTGGCCGGG, 0.998 ± 0.024.
Under TGTGGCCGTT stands 1.03 ± 0.059; under TGTGGGAAAT, 0.988 ± 0.016.
As for TGTGGGATGG, the switch fluorescence ratio came to 1 ± 0.028.
On to TGTGGGCTGG, for which the switch fluorescence ratio worked out at 1.02 ± 0.012.
Under TGTGGGGCCA stands 0.96 ± 0.038; under TGTGGGGCTG, 1.02 ± 0.08; under TGTGGGGGAG, 1.03 ± 0.035.
For the sequence TGTGGGGGGA, the switch fluorescence ratio came to 0.983 ± 0.037.
On to TGTGGGGTTG, for which the switch fluorescence ratio is 0.994 ± 0.033.
With TGTGGGTAAA, the switch fluorescence ratio is 1.01 ± 0.042.
In the case of TGTGGGTCCG it was 1 ± 0.036.
Regarding TGTGGTGGAG, the switch fluorescence ratio is 0.9617 ± 0.0071.
TGTGGTGGTG: the switch fluorescence ratio was 0.978 ± 0.049.
For the sequence TGTGGTTGGG, the switch fluorescence ratio amounted to 0.989 ± 0.027.
Under TGTGTAAAGG stands 1.04 ± 0.042; under TGTGTAAGGC, 1.03 ± 0.038; under TGTGTAGTTG, 0.9821 ± 0.0042.
On to TGTGTATGGG, for which the switch fluorescence ratio came out at 1.19 ± 0.28.
Take TGTGTATTCC: the switch fluorescence ratio was determined as 1.05 ± 0.037.
Consider TGTGTGAGAA, for which the switch fluorescence ratio was 0.997 ± 0.022.
For TGTGTGCAAT, the switch fluorescence ratio was 1.0784 ± 0.001.
As to TGTGTGGCGT, the switch fluorescence ratio worked out at 1.003 ± 0.0042.
As for TGTGTGGGTT, the switch fluorescence ratio worked out at 1.01 ± 0.035.
Under TGTGTGTATG stands 0.999 ± 0.036.
For TGTGTTAAAT, the switch fluorescence ratio stood at 1.04 ± 0.011.
With TGTGTTGCCT, the switch fluorescence ratio amounted to 1.05 ± 0.015.
On to TGTGTTGGGG, for which the switch fluorescence ratio turned out to be 0.969 ± 0.024.
On to TGTGTTGTTT, for which the switch fluorescence ratio came out at 1 ± 0.044.
TGTGTTTTCG: the switch fluorescence ratio is 1 ± 0.014.
In the case of TGTTAAACGC, the switch fluorescence ratio turned out to be 0.945 ± 0.03.
For the sequence TGTTAAAGGG, the switch fluorescence ratio came to 1.03 ± 0.024.
On to TGTTAAAGTT, for which the switch fluorescence ratio turned out to be 0.9908 ± 0.0045.
On to TGTTAAATTT, for which the switch fluorescence ratio is 1.01 ± 0.045.
In the case of TGTTAATCTG, the switch fluorescence ratio turned out to be 0.994 ± 0.021.
Under TGTTAATGTT stands 1 ± 0.029; under TGTTACCGG, 1.004 ± 0.0037; under TGTTACGGGG, 0.98654 ± 0.00045.
Under TGTTACTTAT stands 1.05 ± 0.016; under TGTTAGGGGG, 1.01 ± 0.014.
As for TGTTAGGGTG, the switch fluorescence ratio was found to be 1.04 ± 0.033.
As to TGTTAGTCTG, the switch fluorescence ratio turned out to be 1.03 ± 0.032.
As to TGTTAGTTAC, the switch fluorescence ratio worked out at 1.03 ± 0.025.
As to TGTTAGTTAT, the switch fluorescence ratio was determined as 1.06 ± 0.066.
Turning to TGTTAGTTGG, the switch fluorescence ratio worked out at 1.004 ± 0.0038.
Consider TGTTATAATT, for which the switch fluorescence ratio was found to be 1 ± 0.0048.
Under TGTTATAGCC stands 1.03 ± 0.04; under TGTTATATAG, 1.01 ± 0.033; under TGTTATTGAT, 1.02 ± 0.029.
In the case of TGTTATTGGC it was 1.08 ± 0.084; in that of TGTTATTTTG, 0.989 ± 0.041.
Under TGTTCAGGGA stands 1.048 ± 0.0073.
In the case of TGTTCGGGTG, the switch fluorescence ratio came out at 1.05 ± 0.022.
In the case of TGTTCGTCGT it was 0.9693 ± 0.0039.
In the case of TGTTCTACAG it was 1 ± 0.02.
In the case of TGTTCTCAAA it was 0.98346 ± 0.00079; in that of TGTTCTTTTT, 0.993 ± 0.038.
Take TGTTGACAGT: the switch fluorescence ratio worked out at 1.01 ± 0.021.
Take TGTTGACTGA: the switch fluorescence ratio stood at 1.02 ± 0.023.
With TGTTGAGTAT, the switch fluorescence ratio came to 0.9738 ± 0.0072.
For the sequence TGTTGGACTA, the switch fluorescence ratio worked out at 0.9992 ± 0.0065.
On to TGTTGGAGCG, for which the switch fluorescence ratio worked out at 0.969 ± 0.011.
Consider TGTTGGAGGA, for which the switch fluorescence ratio was determined as 0.994 ± 0.028.
As to TGTTGGAGGC, the switch fluorescence ratio amounted to 0.9713 ± 0.0072.
On to TGTTGGCCGG, for which the switch fluorescence ratio stood at 0.991 ± 0.026.
As to TGTTGGCTTT, the switch fluorescence ratio was found to be 1.06 ± 0.022.
As for TGTTGGGAGA, the switch fluorescence ratio came out at 1 ± 0.025.
In the case of TGTTGGGGCG, the switch fluorescence ratio stood at 1.02 ± 0.069.
In the case of TGTTGGGGGG it was 1.01 ± 0.057; in that of TGTTGGGGGT, 0.962 ± 0.034; in that of TGTTGGGGTT, 1.01 ± 0.018.
For the sequence TGTTGGGTGC, the switch fluorescence ratio amounted to 0.996 ± 0.037.
TGTTGGTGTC: the switch fluorescence ratio came to 0.987 ± 0.07.
Regarding TGTTGGTTCG, the switch fluorescence ratio worked out at 0.97 ± 0.062.
TGTTGTAATG: the switch fluorescence ratio is 0.9974 ± 0.0033.
Take TGTTGTATGC: the switch fluorescence ratio was 0.9617 ± 0.0042.
Take TGTTGTATTG: the switch fluorescence ratio is 0.9761 ± 0.0066.
With TGTTGTGGGA, the switch fluorescence ratio came out at 0.979 ± 0.019.
For TGTTGTGTAG, the switch fluorescence ratio is 0.977 ± 0.021.
On to TGTTGTTTGC, for which the switch fluorescence ratio was 0.982 ± 0.014.
Regarding TGTTGTTTGG, the switch fluorescence ratio is 1 ± 0.063.
Take TGTTTAAAAT: the switch fluorescence ratio is 1.02 ± 0.046.
In the case of TGTTTAAATG it was 1.01 ± 0.026.
Turning to TGTTTAAGTT, the switch fluorescence ratio came out at 1.02 ± 0.023.
As for TGTTTAATGT, the switch fluorescence ratio turned out to be 1.01 ± 0.019.
For TGTTTACAGC, the switch fluorescence ratio was 0.997 ± 0.027.
Take TGTTTATATC: the switch fluorescence ratio was found to be 0.9856 ± 0.0076.
Turning to TGTTTATGTT, the switch fluorescence ratio worked out at 0.9975 ± 0.0064.
As for TGTTTCGGAA, the switch fluorescence ratio amounted to 1.02 ± 0.038.
In the case of TGTTTCTCGA it was 0.9619 ± 0.0041; in that of TGTTTCTCGT, 1.01 ± 0.015; in that of TGTTTGAAGT, 0.989 ± 0.023.
As for TGTTTGGAGG, the switch fluorescence ratio is 0.985 ± 0.022.
Turning to TGTTTGGTGG, the switch fluorescence ratio turned out to be 0.968 ± 0.026.
As to TGTTTGTCTT, the switch fluorescence ratio came to 1 ± 0.069.
Under TGTTTGTGTA stands 1.03 ± 0.022; under TGTTTGTTGT, 1.03 ± 0.063; under TGTTTTAATG, 0.988 ± 0.011.
Turning to TGTTTTCAGT, the switch fluorescence ratio was 0.975 ± 0.02.
Consider TGTTTTCTAG, for which the switch fluorescence ratio came out at 0.99 ± 0.022.
On to TGTTTTGGGT, for which the switch fluorescence ratio was determined as 0.985 ± 0.039.
Turning to TGTTTTGTTG, the switch fluorescence ratio was found to be 0.99 ± 0.016.
With TGTTTTTATA, the switch fluorescence ratio stood at 1.005 ± 0.0091.
For the sequence TGTTTTTGAG, the switch fluorescence ratio was 0.9888 ± 0.0034.
For the sequence TGTTTTTGTA, the switch fluorescence ratio was found to be 1.07 ± 0.13.
On to TTAAAAAAGG, for which the switch fluorescence ratio worked out at 1.01 ± 0.087.
With TTAAAAAGAT, the switch fluorescence ratio worked out at 1.04 ± 0.051.
Consider TTAAAAAGGA, for which the switch fluorescence ratio was 0.986 ± 0.016.
Turning to TTAAAAAGGT, the switch fluorescence ratio turned out to be 1 ± 0.021.
As for TTAAAAATCA, the switch fluorescence ratio was found to be 0.984 ± 0.025.
TTAAAAATGA: the switch fluorescence ratio turned out to be 1.02 ± 0.021.
Under TTAAAAATGC stands 1.02 ± 0.011; under TTAAAAGAGA, 1.04 ± 0.0028; under TTAAAAGCAG, 1.016 ± 0.0045.
Take TTAAAAGCTT: the switch fluorescence ratio stood at 1.05 ± 0.024.
For the sequence TTAAAAGGAA, the switch fluorescence ratio is 1.004 ± 0.0034.
For TTAAAAGGTT, the switch fluorescence ratio is 1.01 ± 0.029.

These data come from the supplement of paper PMC10126150.
